Test results published in article PMC5130146 (Nature structural & molecular biology, 2016).
Where two headings read alike, the source gives them in different places.

Experiments:
Assay in all cases: ITC
[1] = molecular target: AP2 µ2 C-terminal subdomain (C-µ2), residues 160-435 of rat µ2 (rat) (UniProt P84092)
[2] = molecular target: T1, AP2 µ2 C-terminal subdomain (C-µ2), residues 160-435 of rat µ2 (rat, UniProt P84092 160-435)
T1 sequence: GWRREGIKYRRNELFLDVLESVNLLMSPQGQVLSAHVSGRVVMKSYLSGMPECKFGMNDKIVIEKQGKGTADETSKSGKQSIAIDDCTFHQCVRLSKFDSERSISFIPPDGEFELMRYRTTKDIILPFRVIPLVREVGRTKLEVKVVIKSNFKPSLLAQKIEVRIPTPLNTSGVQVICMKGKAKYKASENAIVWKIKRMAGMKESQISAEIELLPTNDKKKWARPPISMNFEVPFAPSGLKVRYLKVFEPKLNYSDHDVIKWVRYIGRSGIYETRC

[3] = molecular target: T1, AP2 µ2 C-terminal subdomain (C-µ2), …; remark: listed apart in the source

Molecule: integrin α4 peptide (QYKSILQE)
- Kd [1]: 72 µM

Molecule: EGFR peptide (FYRLMS)
- Kd [1]: 20 µM

Molecule: KLLMIIHDRREFAKFEKEKMNAKWDTGENPIYKSAVTTVVNPKYEGK [β1-integrin peptide]
- Kd [2]: > 300 µM

Molecule: YKLGFFKRSLPYGTAMEKAQLKPPATSDA [α5-integrin peptide (YKLGFFKRSLPYGTAMEKAQLKPPATSDA)]
- Kd [2]: > 300 µM

Molecule: DYQRLN [TGN38 peptide (DYQRLN)]
- Kd [3]: ~4 µM

Molecule: SYTRFS [transferrin receptor peptide (SYTRFS)]
- Kd [3]: ~15 µM

Molecule: WKLGFFKRKYEKMTKNPDEIDETTELSS [α2 integrin peptide (WKLGFFKRKYEKMTKNPDEIDETTELSS)]
- Kd [2]: ~50 µM
